Measurements as given in paper PMC4237329, “Early Chordate Origin of the Vertebrate Integrin αI Domains” (PLoS ONE, 2014).
Like-named read-outs stand apart in the source and are kept apart here.

Biological target: T1, rat tail collagen I (rat, UniProt P02454 152-1207; P02466 86-1125)
T1 construct: collagen α1(I) chain, rat; collagen α2(I) chain, rat; also called rat collagen I; source: bought: Sigma Aldrich (rat tail collagen I)
Experiment: solid-phase binding assay (Europium-labelled anti-GST antibody, time-resolved fluorescence); 96-well plates coated with rat collagen I; GST-αI domain at various concentrations, one hour at RT, PBS + 2 mM MgCl2; apparent affinity constants from a hyperbolic fit (Hill's equation with h = 1)

T1 sequence (P02454 152-1207, chain 1 of 2): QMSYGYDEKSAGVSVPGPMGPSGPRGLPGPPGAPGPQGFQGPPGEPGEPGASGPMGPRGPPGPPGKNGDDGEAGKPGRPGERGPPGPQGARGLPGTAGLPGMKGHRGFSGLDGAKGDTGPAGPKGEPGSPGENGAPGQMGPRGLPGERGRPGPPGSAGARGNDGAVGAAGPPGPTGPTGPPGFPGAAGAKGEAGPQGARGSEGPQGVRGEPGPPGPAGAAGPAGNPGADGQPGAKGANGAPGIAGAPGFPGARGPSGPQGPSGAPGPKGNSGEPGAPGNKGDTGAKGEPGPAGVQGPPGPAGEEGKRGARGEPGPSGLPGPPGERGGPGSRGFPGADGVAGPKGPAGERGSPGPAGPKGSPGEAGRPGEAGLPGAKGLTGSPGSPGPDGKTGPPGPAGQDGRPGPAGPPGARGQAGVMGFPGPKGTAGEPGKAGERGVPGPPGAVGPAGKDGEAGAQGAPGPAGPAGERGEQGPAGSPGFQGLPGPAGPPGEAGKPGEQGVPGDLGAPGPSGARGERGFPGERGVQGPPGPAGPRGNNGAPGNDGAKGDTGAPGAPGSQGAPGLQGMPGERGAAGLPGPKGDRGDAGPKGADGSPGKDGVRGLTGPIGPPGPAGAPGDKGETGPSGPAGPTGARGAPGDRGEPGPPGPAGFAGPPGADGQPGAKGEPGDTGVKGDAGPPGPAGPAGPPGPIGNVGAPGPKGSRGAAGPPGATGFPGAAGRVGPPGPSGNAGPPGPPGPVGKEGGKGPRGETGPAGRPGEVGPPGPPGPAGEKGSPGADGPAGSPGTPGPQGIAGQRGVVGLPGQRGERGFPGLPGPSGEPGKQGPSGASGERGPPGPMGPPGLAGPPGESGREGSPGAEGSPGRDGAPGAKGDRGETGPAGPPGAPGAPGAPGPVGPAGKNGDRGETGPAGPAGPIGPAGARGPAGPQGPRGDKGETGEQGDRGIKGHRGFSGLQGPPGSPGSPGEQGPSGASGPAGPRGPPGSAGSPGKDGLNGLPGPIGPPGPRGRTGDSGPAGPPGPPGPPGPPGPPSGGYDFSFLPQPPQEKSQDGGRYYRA
T1 sequence (P02466 86-1125, chain 2 of 2): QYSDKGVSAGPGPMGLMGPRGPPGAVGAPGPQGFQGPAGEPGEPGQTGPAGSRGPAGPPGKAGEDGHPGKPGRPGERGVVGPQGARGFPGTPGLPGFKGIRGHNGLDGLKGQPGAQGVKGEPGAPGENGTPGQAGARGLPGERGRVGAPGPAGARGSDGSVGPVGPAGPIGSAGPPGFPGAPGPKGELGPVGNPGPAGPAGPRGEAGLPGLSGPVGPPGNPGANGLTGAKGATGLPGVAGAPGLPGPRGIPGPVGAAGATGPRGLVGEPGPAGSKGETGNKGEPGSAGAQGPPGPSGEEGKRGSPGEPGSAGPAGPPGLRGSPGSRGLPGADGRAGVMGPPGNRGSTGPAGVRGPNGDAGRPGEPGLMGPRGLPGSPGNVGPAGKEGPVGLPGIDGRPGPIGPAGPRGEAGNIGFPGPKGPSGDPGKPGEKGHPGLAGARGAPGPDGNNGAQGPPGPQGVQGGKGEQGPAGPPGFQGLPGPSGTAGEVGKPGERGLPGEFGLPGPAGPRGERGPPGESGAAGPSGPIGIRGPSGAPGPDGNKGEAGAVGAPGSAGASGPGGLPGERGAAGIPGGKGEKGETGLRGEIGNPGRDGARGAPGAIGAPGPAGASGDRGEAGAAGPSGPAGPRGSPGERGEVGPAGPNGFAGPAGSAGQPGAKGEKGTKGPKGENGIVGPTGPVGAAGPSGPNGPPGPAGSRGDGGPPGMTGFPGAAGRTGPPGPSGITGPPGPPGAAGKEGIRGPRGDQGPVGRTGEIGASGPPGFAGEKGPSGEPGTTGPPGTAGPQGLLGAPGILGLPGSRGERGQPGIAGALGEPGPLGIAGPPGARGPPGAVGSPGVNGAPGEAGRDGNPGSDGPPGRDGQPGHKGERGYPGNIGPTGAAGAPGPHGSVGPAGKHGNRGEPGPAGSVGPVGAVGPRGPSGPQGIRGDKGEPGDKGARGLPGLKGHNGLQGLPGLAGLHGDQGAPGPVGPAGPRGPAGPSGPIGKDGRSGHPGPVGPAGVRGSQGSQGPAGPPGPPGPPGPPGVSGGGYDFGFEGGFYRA

Row | Kd [nM] | Kd (both partners purified) [nM] | Molecule
1 | 195 | – | Pma_f3 αI domain (sea lamprey integrin α subunit fragment Pma_f3), GST-fusion protein (domain or fragment)
2 | 200 | – | Pma_f1 αI domain (sea lamprey integrin α subunit fragment Pma_f1), GST-fusion protein (domain or fragment)
3 | – | 375 ± 120 | Pma_f2 αI domain (sea lamprey integrin α subunit fragment Pma_f2), GST-fusion protein (domain or fragment, sea lamprey (Petromyzon marinus), also called Pma αI domains; source: E. coli BL21 tuner (gene synthesized, in pGEX-2T), recombinant GST-fusion protein, "sufficiently pure") ADFQVTSTLTPAAQRCGLFMDIVIVLDGSNSIYPWQEVQNFVINIVKKFHIGPGQSRNGGGSTRFGVRTIHWHLGIARWACEGVQDVENIYSRPFVRTASALCQSLQVVRSEAFSPLFGAREGASKVMIVVTDGESHDSEDLTEAIAACERDNITRYAIAVLGYYKRKNIDPSNFISELKAISSEPEEKHFINVADEAALNDIVGTLGERIFSLEGTV
